For assay [1], the system named is TRAP+ multinucleated osteoclasts. Nature of the assay: Osteoblast/BM co-culture, TRAP+ multinucleated osteoclast count. Format: cell-based, mouse. The note with it: G-CSF 50 ng/ml, HGF 50 ng/ml, SDF-1 10 and 100 ng/ml; 5 days. The protocol: Osteoclast precursors are stimulated by cell-cell contact with osteoblasts to become activated multinucleated TRAP+ bone resorbing cells. To obtain active osteoclasts in vitro, a clvarian osteoblasts are incubated with Vitamine D3 and PG2E which potentiate their M-CSF production and RANKL expression, needed for osteoclast activation. BM cells which contain osteoclast precursors are seeded then on the osteoblast monolayer, for 5 days, to obtain active multinucleated osteoclasts.
A co-culture of primary mouse osteoblasts and BM (containing ocl precursors as detailed above) was seeded in the presence of G-CSF (50 ng/ml), HGF (50 ng/ml), or SDF-1 (10 and 100 ng/ml). Five days later, TRAP+ multinucleated osteoclasts in the cultures were stained (as described in Example 1) and counted 5 days later.

For assay [2], the system named is SDF-1. Nature of the assay: SDF-1 transcription (RT-PCR) and secretion (ELISA) in primary calvaria osteoblasts. Format: cell-based, mouse. The following applies: 50 ng/ml, 3 days. The protocol:
Osteoblast were incubated with G-CSF, HGF or remained untreated, and SDF-1 transcription and expression was determined in such cells (FIG. 9).
Primary calvaria osteoblasts were cultured for 3 days in the presence of SDF-1 (PeproTech, 100 […]), HGF (PeproTech, 50 ng/ml) and G-CSF (Filgrastin, Roche, 50 ng/ml). Conditioned media was collected to determine SDF-1 concentration by ELISA, as described in Example 2. Determination of SDF-1 transcription and expression as in Example 2.

Assay [3] has as its system SDF-1. Nature of the assay: Migration of Pre B ALL G2 cells towards CTK treated SDF-1. It is filed as cell-based. The following applies: SDF-1 125 ng, CTK 1 mcg/ml, about 16 hours, 37° C. The protocol: We employed an in-vitro functional assay for SDF-1 (Example 10) to check the effect of CTK on SDF-1 activity. The assay consisted on migration of leukemic Pre B ALL G2 (cells which migrate very well to relative low concentrations of SDF-1, Spiegel, Blood, 2004) to SDF-1.
In brief, SDF-1 (125 ng) was incubated with CTK ([…]) in a 100 ul reaction volume adjusted with PBS, for about 16 hours in 37° C. In some samples, protease inhibitor (PI, 1 ul, Sigma, containing the cystein protease inhibitor E-64) was preincubated with CTK for 1.5 hrs, in 37° C., before SDF-1 was added. The leukemic Pre B ALL G2 cells were loaded on transwells and migration towards CTK treated as well as non treated SDF-1 was measured.
125 ng/ml SDF-1α was kept untreated or incubated with CTK (1 mcg/ml) for overnight in 37° C. To inhibit enzymatic activity of CTK, 1 and 2 mcl of protease inhibitor (Sigma) was incubated with CTK for 1.5 h before adding to SDF-1. RPMI (600 μl) supplemented with 10% FCS was added with tested SDF-1 to the lower chamber of a Costar 24-wells transwell (Corning (pore size 5 μm), NY). 1×10^5 pre B ALL G2 cells in 100 μl medium were loaded to the upper chamber and were allowed to migrate for 4 hours at 37° C. Migrating cells were collected from the lower chamber and counted for 60 seconds using a FACSCalibur. Control spontaneous migration was performed without SDF-1α in the lower chamber.

Assay [4] concerns SDF-1. Description: SDF-1 cleavage by CTK, SDS-PAGE and blot with anti SDF-1 polyclonal Ab or K15C. Format: biochemical. The note with it: SDF-1 20 ng, CTK 1.76 ug/ml. The protocol:
SDF-1 (20 ng) was incubated with CTK (1.76 ug/ml) for 0, 15, 30, and 60 minutes at 37OC. Samples were subjected than to SDS-PAGE, blotted and detected with anti SDF-1 polyclonal Ab or with the monoclonal Ab K15C, which specifically binds the amino terminal part of the chemokine.
We further explored the kinetics of SDF-1 cleavage by CTK at a time scale of minutes (FIG. 14). Samples of SDF-1 (20 ng) were incubated with CTK (1.76 ug/ml) for 0, 15, 30, 60, 120 and 240 minutes at 37° C. After collection, the samples were subjected to SDS-PAGE and blotted and detected with anti SDF-1 polyclonal Ab (R&D) or with the monoclonal Ab K15C which specifically binds the amino terminal part of the chemokine.

The test system of a further assay is TRAP+ active osteoclasts. Description: In vivo osteoclast activation by RANKL, TRAP staining. Also on record: species or system Balb/c mice. The note with it: RANKL 2 daily subcutaneous injections of 5 mcg for 3 days. As for the experimental part: (§1) Balb/c mice were injected with soluble murine RANKL (2 injections per day, 5 mcg per subcutaneous injection). Bones of treated mice were stained for TRAP (in red) indicating mature activated osteoclasts (A). Levels of MMP-9 in BM fluids were determined by zymography assay (B). The expression of CTK mRNA was detected by RT-PCR (C).
(§2) Mice were administrated with RANKL as follows: 2 daily subcutaneous injections of 5 mcg for 3 days and after two more days in the absence of RANKL. The following parameters were monitored in both treated and control untreated mice: TRAP+ activated osteoclasts (FIG. 11A), induction of osteoclast proteases MMP-9 (FIG. 11B) and CTK (FIG. 11C) in the BM and mobilization (FIG. 12).

Another assay relates to MMP-9. Description: MMP-9 in BM after RANKL, zymography. Format: in vivo, Balb/c mice. The following applies: RANKL 2 daily subcutaneous injections of 5 mcg for 3 days. As for the experimental part: as §1, §2
In another assay the test system is CTK. Nature of the assay: CTK expression in BM after RANKL, RT-PCR. It is filed as in vivo, Balb/c mice. The note with it: RANKL 2 daily subcutaneous injections of 5 mcg for 3 days. The protocol:
as §1, §2

A further assay relates to progenitors. Description: Progenitor mobilization by RANKL, semisolid cultures. Format: in vivo, Balb/c mice. The note with it: RANKL 2 daily subcutaneous injections of 5 mcg for 3 days. As for the experimental part: (A) Progenitor mobilization assayed in semisolid cultures, induced by SDF-1 (10 mcg), HGF (1.5 mcg) injected for 5 days and sRANKL (2×5 mcg) injected for the first 3 days. (B) RANKL induced mobilization is inhibited by administration of anti CXCR4 antibodies (10 mcg) and MMP2/9 inhibitor (100 mcg), injected for the last 2 days. (C) Osteoclast precursors in the BM of treated mice were assayed by culturing BM cells for 4 days with M-CSF and sRANKL, followed by TRAP staining to detect mature active osteoclasts.
as §2

B1: G-CSF: granulocyte colony-stimulating factor (Filgrastin, Roche) (protein, UniProt P09919 31-207, looked up)
Granulocyte …: TPLGPASSLPQSFLLKCLEQVRKIQGDGAALQEKLVSECATYKLCHPEELVLLGHSLGIPWAPLSSCPSQALQLAGCLSQLHSGLFLYQGLLQALEGISPELGPTLDTLQLDVADFATTIWQQMEELGMAPALQPTQGAMPAFASAFQRRAGGVLVASHLQSFLEVSYRVLRHLAQP
modifications: filgrastim
Regarding B1, in assay [1], the “level of activated TRAP+ osteoclasts” value is reported as “significantly increased”. Moreover, in the assay with SDF-1 [2], the “SDF-1 transcription in osteoblasts” value is reported as “induce”. Moreover, the “SDF-1 production in osteoblasts” value in the assay on SDF-1 [2] (conditioned media ELISA) is listed as “induce”.

B2: CTK: cathepsin K, lysosomal cysteine protease, the major osteoclast bone resorbing enzyme (protein, UniProt P43235 115-329, looked up)
Cathepsin K: APDSVDYRKKGYVTPVKNQGQCGSCWAFSSVGALEGQLKKKTGKLLNLSPQNLVDCVSENDGCGGGYMTNAFQYVQKNRGIDSEDAYPYVGQEESCMYNPTGKAAKCRGYREIPEGNEKALKRAVARVGPVSVAIDASLTSFQFYSKGVYYDESCNSDNLNHAVLAVGYGIQKGNKHWIIKNSWGENWGNKGYILMARNKNNACGIANLASFPKM
B2: the “chemotactic activity of SDF-1 after incubation with CTK” value in the assay with SDF-1 [3] is listed as “abolished”. In addition, the “kinetics of SDF-1 cleavage by CTK” value in the assay on SDF-1 [4] (0-240 minutes, 37° C.) was “fast and site specific SDF-1 cleavage”. Also, the “site of SDF-1 cleavage by CTK” value with SDF-1 [4] (detection with K15C (amino terminal part)) was “N-terminally cleaved”.

B3: RANKL: Receptor Activator of NK-kappaB Ligand, soluble murine, osteoclast differentiating factor (protein, UniProt O35235 70-316, looked up)
extracellular domain: YFRAQMDPNRISEDSTHCFYRILRLHENADLQDSTLESEDTLPDSCRRMKQAFQGAVQKELQHIVGPQRFSGAPAMMEGSWLDVAQRGKPEAQPFAHLTINAASIPSGSHKVTLSSWYHDRGWAKISNMTLSNGKLRVNQDGFYYLYANICFRHHETSGSVPTDYLQLMVYVVKTSIKIPSSHNLMKGGSTKNWSGNSEFHFYSINVGGFFKLRAGEEISIQVSNPSLLDPDQDATYFGAFKVQDID
modifications: extracellular domain
In the case of B3, the “formation of TRAP+ active osteoclasts” value in the assay on TRAP+ active osteoclasts is “induced formation of TRAP+ active osteoclasts along the endosteum”. The “MMP-9 expression in the bone marrow” value with MMP-9 is listed as “induction”. Besides, the “CTK expression in the bone marrow” value in the assay on CTK is listed as “induction”. Further, in the assay on progenitors, the mobilization of progenitors entry is “mobilization of progenitors”.

These data come from US20080305097A1, “Use of Protease or a Protease Inhibitor for the Manufacture of Medicaments” (YEDA RESEARCH AND DEVELOPMENT CO., LTD., priority 2004, published 2008).
